Results: the supplement of paper PMC10567573

B1: COX4I1 (parent)
chain: VAHVKHLSASQKALKEKEKASWSS

Variants of: B1
Test: protein stability index of a GFP-peptide fusion (GPS, HEK-293T) (PSI 1-6); higher = more stable
Conditions: c terminus: a fixed tail appended
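Note: lentivirally expressed fusions sorted by FACS into six bins by GFP to DsRed ratio, PSI derived from sequencing read proportions per bin multiplied by bin number.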

Point of comparison: VAHVKHLSASQKILKEKEKASWSS [A13I], protein stability index 2.75. Against it:
- VAHVKHLSASQKAEKEKEKASWSS [L14E] — higher, 3.54
- VAHVKHLSASQKANKEKEKASWSS [L14N] — higher, 3.98
- VAHVKHLSASQKAPKEKEKASWSS [L14P] — higher, 3.41
- VAHVKHLSASQKADKEKEKASWSS [L14D] — higher, 3.92
- VAHVKHLSASQKAIKEKEKASWSS [L14I] — higher, 3.46
- VAHVKHLSASQKAMKEKEKASWSS [L14M] — higher, 3.62
- VAHVKHLSASQKAKKEKEKASWSS [L14K] — higher, 3.65
- VAHVKHLSASQKAVKEKEKASWSS [L14V] — higher, 3.38
- VAHVKHLSASQKAYKEKEKASWSS [L14Y] — higher, 3.09
- VAHVKHLSASQKAAKEKEKASWSS [L14A] — higher, 3.2
- VAHVKHLSASQKAGKEKEKASWSS [L14G] — higher, 3.1
- VAHVKHLSASQKAHKEKEKASWSS [L14H] — higher, 3.61
- VAHVKHLSASQKAQKEKEKASWSS [L14Q] — higher, 3.48
- VAHVKHLSASQKACKEKEKASWSS [L14C] — higher, 3.12
- VAHVKHLSASQKATKEKEKASWSS [L14T] — higher, 2.89
- VAHVKHLSASQKASKEKEKASWSS [L14S] — higher, 3.05
- VAHVKHLSASQKARKEKEKASWSS [L14R] — higher, 3.7
- VAHVKHLSASQKAFKEKEKASWSS [L14F] — higher, 2.88
- VAHVKHLSASQKAWKEKEKASWSS [L14W] — higher, 3.2
- VAHVIHLSASQKALKEKEKASWSS [K5I] — lower, 2.4
- VAHVPHLSASQKALKEKEKASWSS [K5P] — higher, 3.64
- VAHVVHLSASQKALKEKEKASWSS [K5V] — higher, 3.1
- VAHVHHLSASQKALKEKEKASWSS [K5H] — higher, 2.93
- VAHVGHLSASQKALKEKEKASWSS [K5G] — higher, 3.88
- VAHVTHLSASQKALKEKEKASWSS [K5T] — higher, 3.66
- VAHVSHLSASQKALKEKEKASWSS [K5S] — higher, 3.72
- VAHVYHLSASQKALKEKEKASWSS [K5Y] — lower, 2.55
- VAHVQHLSASQKALKEKEKASWSS [K5Q] — higher, 3.12
- VAHVRHLSASQKALKEKEKASWSS [K5R] — lower, 2.65
- VAHVFHLSASQKALKEKEKASWSS [K5F] — lower, 2.45
- VAHVNHLSASQKALKEKEKASWSS [K5N] — higher, 3.45
- VAHVLHLSASQKALKEKEKASWSS [K5L] — higher, 3.28
- VAHVWHLSASQKALKEKEKASWSS [K5W] — lower, 2.65
- VAHVMHLSASQKALKEKEKASWSS [K5M] — higher, 2.78
- VAHVKHLSASQKYLKEKEKASWSS [A13Y] — higher, 3.06
- VAHVKHLSASQKWLKEKEKASWSS [A13W] — lower, 2.08
- VAHVKHLSASQKMLKEKEKASWSS [A13M] — higher, 2.95
- VAHVKHLSASQKKLKEKEKASWSS [A13K] — higher, 3.16
- VAHVKHLSASQKRLKEKEKASWSS [A13R] — lower, 2.69
- VAHVKHLSASQKGLKEKEKASWSS [A13G] — higher, 3.3
- VAHVKHLSASQKNLKEKEKASWSS [A13N] — higher, 3.58
- VAHVKHLSASQKHLKEKEKASWSS [A13H] — higher, 3.17
- VAHVKHLSASQKQLKEKEKASWSS [A13Q] — lower, 2.63
- VAHVKHLSASQKELKEKEKASWSS [A13E] — higher, 3.64
- VAHVKHLSASQKPLKEKEKASWSS [A13P] — higher, 3.8
- VAHVKHLSASQKVLKEKEKASWSS [A13V] — higher, 3.09
- VAHVKHLSASQKSLKEKEKASWSS [A13S] — higher, 3.2
- VAHVKHLSASQKDLKEKEKASWSS [A13D] — higher, 3.82
- VAHVKHLSASQKFLKEKEKASWSS [A13F] — lower, 2.39
- VAHVKHLSASQKTLKEKEKASWSS [A13T] — higher, 3.27
- VAHVKHLSASQKCLKEKEKASWSS [A13C] — higher, 3.37
- VAHVKHLSASQKLLKEKEKASWSS [A13L] — higher, 2.91
- VAHVKHLSASQKALCEKEKASWSS [K15C] — higher, 3.21
- VAHVKHLSASQKALAEKEKASWSS [K15A] — higher, 3.78
- VAHVKHLSCSQKALKEKEKASWSS [A9C] — lower, 2.42
- VAHVKHLSVSQKALKEKEKASWSS [A9V] — higher, 3.09
- VAHVKHLSESQKALKEKEKASWSS [A9E] — higher, 4.11
- VAHVKHLSYSQKALKEKEKASWSS [A9Y] — lower, 2.06
- VAHVKHLSPSQKALKEKEKASWSS [A9P] — higher, 3.19
- VAHVKHLSLSQKALKEKEKASWSS [A9L] — higher, 3.23
- VAHVKHLSQSQKALKEKEKASWSS [A9Q] — higher, 3.01
- VAHVKHLSWSQKALKEKEKASWSS [A9W] — lower, 2.47
- VAHVKHLSFSQKALKEKEKASWSS [A9F] — higher, 3.55
- VAHVKHLSMSQKALKEKEKASWSS [A9M] — higher, 3.03
- VAHVKHLSRSQKALKEKEKASWSS [A9R] — higher, 3.7
- VAHVKHLSKSQKALKEKEKASWSS [A9K] — higher, 3.07
- VAHVKHLSDSQKALKEKEKASWSS [A9D] — higher, 3.87
- VAHVKHLSGSQKALKEKEKASWSS [A9G] — lower, 2.38
- VAHVKHLSSSQKALKEKEKASWSS [A9S] — higher, 3.59
- VAHVKHLSHSQKALKEKEKASWSS [A9H] — higher, 3.19
- VAHVKHLSTSQKALKEKEKASWSS [A9T] — higher, 2.93
- VAHVKHLSISQKALKEKEKASWSS [A9I] — higher, 3.35
- VAHVKHLSNSQKALKEKEKASWSS [A9N] — higher, 3.43
- VAHVKHLSAPQKALKEKEKASWSS [S10P] — higher, 3.39
- VAHVKHLSAKQKALKEKEKASWSS [S10K] — lower, 2.66
- VAHVKHLSAMQKALKEKEKASWSS [S10M] — higher, 2.94
- VAHVKHLSADQKALKEKEKASWSS [S10D] — higher, 4.01
- VAHVKHLSAYQKALKEKEKASWSS [S10Y] — lower, 2.28
- VAHVKHLSATQKALKEKEKASWSS [S10T] — lower, 2.56
- VAHVKHLSAEQKALKEKEKASWSS [S10E] — higher, 3.95
- VAHVKHLSAIQKALKEKEKASWSS [S10I] — lower, 2.37
- VAHVKHLSAVQKALKEKEKASWSS [S10V] — higher, 2.94
- VAHVKHLSAQQKALKEKEKASWSS [S10Q] — higher, 3.12
- VAHVKHLSAFQKALKEKEKASWSS [S10F] — higher, 2.83
- VAHVKHLSANQKALKEKEKASWSS [S10N] — higher, 3.98
- VAHVKHLSALQKALKEKEKASWSS [S10L] — lower, 2.58
- VAHVKHLSAHQKALKEKEKASWSS [S10H] — higher, 3.05
- VAHVKHLSAWQKALKEKEKASWSS [S10W] — lower, 2.26
- VAHVKHLSARQKALKEKEKASWSS [S10R] — higher, 3.16
- VAHVKHLSACQKALKEKEKASWSS [S10C] — lower, 1.97
- VAHVKHLSAAQKALKEKEKASWSS [S10A] — higher, 2.88
- VAHVKHLSAGQKALKEKEKASWSS [S10G] — higher, 3.46
- VAHVKTLSASQKALKEKEKASWSS [H6T] — higher, 2.97
